Laboratory results reported in patent publication US7772181B2, “Personal care compositions comprising modified variant Bowman Birk Protease Inhibitors” (Danisco US Inc., priority 2008, dated 2010).
Marks after values point to notes of the source that are not given here.

How the values were obtained:
[1] = biological target: T1, bovine pancreatic trypsin (Bos taurus, UniProt P00760); experiment: Shake flask screen: trypsin inhibition after growth, 2-mercaptoethanol activation and acid/heat treatment; assay type: biochemical; conditions: for BBIt-AV yield after acid/heat treatment relative to unmodified BBIt-AV: activated with 2-mercaptoethanol
T1 construct: purchased Worthington (Worthington Biochemical Corp.)
T1 sequence (P00760 24-246): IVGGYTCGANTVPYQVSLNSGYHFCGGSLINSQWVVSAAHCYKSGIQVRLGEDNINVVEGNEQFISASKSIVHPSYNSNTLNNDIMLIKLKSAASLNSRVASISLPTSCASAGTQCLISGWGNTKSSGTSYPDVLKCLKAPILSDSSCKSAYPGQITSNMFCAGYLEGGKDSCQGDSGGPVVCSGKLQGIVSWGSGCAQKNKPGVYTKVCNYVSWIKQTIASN
Description: To increase expression, the gene copy of the selected clones was amplified by sequentially streaking colonies on Luria agar plates with 25 μg/ml chloramphenicol until the growth rate was similar to growth on Luria agar plates without chloramphenicol. Cultures of the selected variants and controls were grown in 3 ml Luria broth with 25 μg/ml chloramphenicol in 15 ml tubes for ˜10 h. These cultures (30 μl) were then used to inoculate 30 ml of MBD medium in 250 ml baffled shake flasks and grown at 37° C. and 225 rpm for ˜60 h.
For selection of the variants with the best yields, the culture broths were processed as follows. The broth was first activated by mixing 20 ml of broth with 20 ml of 0.25 M glycine buffer (pH 9.3) and the pH was adjusted to 9.0 with 50% NaOH. Then, 2-mercaptoethanol was added to the diluted cultures to a final concentration of 2 mM and the cultures were incubated overnight at room temperature with gentle shaking. The BBIt-AV moiety was then cleaved from the fusion protein by acid/heat treatment, which was accomplished by first adjusting the pH of the activated broth to pH 1.9-2.0 with sulfuric acid, and followed by incubation at 60° C. for 16 hours, with shaking. The BBIt-AV-BCE fusion protein and the BCE catalytic domain are not soluble at pH 2, whereas the free BBI species is soluble. After the cleavage reaction, the insoluble material was removed by centrifugation (5 min. at 3,000 rpm) and the supernatant was analyzed for trypsin inhibitory activity as described above. The BBI activity was also determined for the starting material and for the samples taken after activation. The BCE activity of the starting material was also determined as described above. The BBIt-AV:BCE activity ratios were then calculated for each step in process. The modified BBIt-AVs produced at the highest yields following the acid/heat treatment were selected for further study.

[2] = biological target: T1, bovine pancreatic trypsin; experiment: BBIt-AV:BCE activity ratio, microtiter plate screens (primary, quadruplicate secondary); assay type: biochemical; conditions: single substitution in BBIt-AV, in the presence of reducing agent
Description: The cultures in each master plate were thawed and a pin replicator was used to inoculate a new sterile microtiter plate containing 150 μl of Luria broth with 5 μg/ml chloramphenicol in each well. The plates were grown for ˜10 hrs in a humidified and aerated box as described above. For controls, the cultures in two wells were replaced with BBI and BBI-AV cultures that had been grown concurrently in 15 ml culture tubes (5 ml of Luria broth with 5 μg/ml chloramphenicol). After the cultures were grown, the plate was used to inoculate two duplicate 96-well filter plates (Millipore, MSGV2210) containing 150 μl of MBD medium (Vogtentanz et al., 2007) with 5 μg/ml chloramphenicol in each well by using a pin replicator. The duplicate plates were grown for ˜14 hours (as above, with plastic spacers placed between the stacked plates to allow for efficient air flow around the plates) and then 2-mecaptoethanol was added to each well in one of the plates to a final concentration of 2 mM. The plates were then grown for an additional ˜46 hours. The 96-well filter plates containing the culture broth (with or without added 2-mecaptoethanol) were then assayed for BBI and BCE activity.
Libraries were analyzed using dilutions of cultures grown in 96-well plates. Typically, the culture broth from each well was diluted (200 fold) in Assay Buffer (100 mM Tris pH 8.6, 0.005% Tween 80) and transferred to a second microtiter plate (CoStar 9017, Corning, Inc., Corning, N.Y.). Then, 20 μl of the diluted samples were transferred to a third microtiter plate. A standard curve was created by adding 20, 10, 5 or 2.5 μl of the diluted sBBI (SEQ ID NO:13) control culture to empty wells. Then, 80 μL of 50 ng/ml trypsin (bovine pancreatic trypsin, Worthington Biochemical Corp., Lakewood, N.J.) (prepared from a 1 mg/mL stock solution diluted into Assay Buffer) was added to each well of the plate. The reactions were mixed and incubated 15 min at room temperature. After the incubation, 100 μL of 0.5 mg/ml trypsin substrate (succinyl-Ala-Ala-Pro-Arg-para-nitroanilide, Bachem Bioscience, Inc., King of Prussia, Pa.), diluted in Assay Buffer from a 100 mg/ml solution in DMSO, was added to each well, mixed, and the absorbance at 405 nm was monitored for 15 min, with 1 time point recorded every 12 sec using a Spectra Max 250 (Molecular Devices). The data points were used to determine the rate for each reaction. The standard curve was generated by plotting the reaction rate versus the BBI volume and was fitted to a four-parameter equation. All data fitting was done using software supplied by the manufacturer (Molecular Devices Corp., Sunnyvale, Calif.). The activity of each BBIt-AV variant was calculated from the standard curve. Thus, the activities of all modified variant proteins were determined relative to the activity in the sBBI control (BBI-WT) culture.
The concentration of BCE was determined by an activity assay using purified BCE as a standard as described above and by (Vogtentanz et al. 2007). For the analysis of libraries grown in 96-well microtiter plates, 20 μl of culture broth were transferred to each well of a new microtiter plate. A standard curve was created by adding 20, 10, 5 or 2.5 μl of the diluted BBI-WT control culture to these empty wells. Then, 180 μl of the BCE substrate (0.25 μg/ml in Assay Buffer), 4-nitrophenyl β-D-cellobioside (Sigma, St. Louis, Mo.), was added to the plate. The plate was mixed and the absorbance at 405 nm monitored for 15 min, with 1 time point recorded every 12 s using a Spectra Max 250 (Molecular Devices Corp., Sunnyvale, Calif.). The data points were used to determine the rate for each reaction. The standard curve was generated by plotting rate versus culture volume and was fit to a quadratic curve. The BCE concentration in each variant culture was determined relative to the standard control culture. […]

B1: M27A: BBIt-AV (SEQ ID NO:187) with single substitution M27A (protein)
chain: DDESSKPCCDQCACTKSNPPQCRCSDARLNSCHSACKSCACYNLYGWTCFCVDITDFCYEPCKPSE
modifications: synthetic BBIt-AV sequence
- yield after acid/heat treatment, better than V52L [1]: about 40%
- activation level (BBIt-AV:BCE activity ratio after reducing agent) ([1]; single substitutions in BBIt-AV): activate to similar levels

B2: S4V: BBIt-AV (SEQ ID NO:187) with single substitution S4V (protein)
chain: DDEVSKPCCDQCACTKSNPPQCRCSDMRLNSCHSACKSCACYNLYGWTCFCVDITDFCYEPCKPSE
modifications: synthetic BBIt-AV sequence
- BBIt-AV yield after acid/heat treatment relative to unmodified BBIt-AV [1]: improved yields after acid/heat treatment

B3: S5P: BBIt-AV (SEQ ID NO:187) with single substitution S5P (protein)
chain: DDESPKPCCDQCACTKSNPPQCRCSDMRLNSCHSACKSCACYNLYGWTCFCVDITDFCYEPCKPSE
modifications: synthetic BBIt-AV sequence
- BBIt-AV yield after acid/heat treatment relative to unmodified BBIt-AV [1]: improved yields after acid/heat treatment

B4: Q11G: BBIt-AV (SEQ ID NO:187) with single substitution Q11G (protein)
chain: DDESSKPCCDGCACTKSNPPQCRCSDMRLNSCHSACKSCACYNLYGWTCFCVDITDFCYEPCKPSE
modifications: synthetic BBIt-AV sequence
- BBIt-AV yield after acid/heat treatment relative to unmodified BBIt-AV [1]: improved yields after acid/heat treatment

B5: S38N: BBIt-AV (SEQ ID NO:187) with single substitution S38N (protein)
chain: DDESSKPCCDQCACTKSNPPQCRCSDMRLNSCHSACKNCACYNLYGWTCFCVDITDFCYEPCKPSE
modifications: synthetic BBIt-AV sequence
- BBIt-AV yield after acid/heat treatment relative to unmodified BBIt-AV [1]: improved yields after acid/heat treatment

B6: S65E: BBIt-AV (SEQ ID NO:187) with single substitution S65E (protein)
chain: DDESSKPCCDQCACTKSNPPQCRCSDMRLNSCHSACKSCACYNLYGWTCFCVDITDFCYEPCKPEE
modifications: synthetic BBIt-AV sequence
- BBIt-AV yield after acid/heat treatment relative to unmodified BBIt-AV [1]: improved yields after acid/heat treatment

B7: K37S: BBIt-AV (SEQ ID NO:187) with single substitution K37S (protein)
chain: DDESSKPCCDQCACTKSNPPQCRCSDMRLNSCHSACSSCACYNLYGWTCFCVDITDFCYEPCKPSE
modifications: synthetic BBIt-AV sequence
- relative activity of the amino acid substitution (BBI:BCE activity ratio vs BBIt-AV), amino acid present in BBIdb-AV [2]: S (+/−)

B8: F50V: BBIt-AV (SEQ ID NO:187) with single substitution F50V (protein)
chain: DDESSKPCCDQCACTKSNPPQCRCSDMRLNSCHSACKSCACYNLYGWTCVCVDITDFCYEPCKPSE
modifications: synthetic BBIt-AV sequence
- relative activity of the amino acid substitution (BBI:BCE activity ratio vs BBIt-AV), amino acid present in BBIdb-AV [2]: V (+)

B9: V52F: BBIt-AV (SEQ ID NO:187) with single substitution V52F (protein)
chain: DDESSKPCCDQCACTKSNPPQCRCSDMRLNSCHSACKSCACYNLYGWTCFCFDITDFCYEPCKPSE
modifications: synthetic BBIt-AV sequence
- relative activity of the amino acid substitution (BBI:BCE activity ratio vs BBIt-AV), amino acid present in BBItc-AV [2]: F (+/−)

B10: I54M: BBIt-AV (SEQ ID NO:187) with single substitution I54M (protein)
chain: DDESSKPCCDQCACTKSNPPQCRCSDMRLNSCHSACKSCACYNLYGWTCFCVDMTDFCYEPCKPSE
modifications: synthetic BBIt-AV sequence
- relative activity of the amino acid substitution (BBI:BCE activity ratio vs BBIt-AV), amino acid present in BBIdb-AV [2]: M (−)

B11: I54T: BBIt-AV (SEQ ID NO:187) with single substitution I54T (protein)
chain: DDESSKPCCDQCACTKSNPPQCRCSDMRLNSCHSACKSCACYNLYGWTCFCVDTTDFCYEPCKPSE
modifications: synthetic BBIt-AV sequence
- relative activity of the amino acid substitution (BBI:BCE activity ratio vs BBIt-AV), amino acid present in BBIsb3-AV [2]: T (−)****

B12: T55K: BBIt-AV (SEQ ID NO:187) with single substitution T55K (protein)
chain: DDESSKPCCDQCACTKSNPPQCRCSDMRLNSCHSACKSCACYNLYGWTCFCVDIKDFCYEPCKPSE
modifications: synthetic BBIt-AV sequence
- relative activity of the amino acid substitution (BBI:BCE activity ratio vs BBIt-AV), amino acid present in BBIdb-AV [2]: K (−)

B13: T55N: BBIt-AV (SEQ ID NO:187) with single substitution T55N (protein)
chain: DDESSKPCCDQCACTKSNPPQCRCSDMRLNSCHSACKSCACYNLYGWTCFCVDINDFCYEPCKPSE
modifications: synthetic BBIt-AV sequence
- relative activity of the amino acid substitution (BBI:BCE activity ratio vs BBIt-AV), amino acid present in BBIsb3-AV [2]: N (+/−)

B14: E60K: BBIt-AV (SEQ ID NO:187) with single substitution E60K (protein)
chain: DDESSKPCCDQCACTKSNPPQCRCSDMRLNSCHSACKSCACYNLYGWTCFCVDITDFCYKPCKPSE
modifications: synthetic BBIt-AV sequence
- relative activity of the amino acid substitution (BBI:BCE activity ratio vs BBIt-AV), amino acid present in BBIsb3-AV [2]: K (+/−)
- relative activity of the amino acid substitution (BBI:BCE activity ratio vs BBIt-AV), amino acid present in BBItc-AV [2]: K (+/−)
